± gives the uncertainty stated by the source.
Test: protein stability index of a GFP-peptide fusion (yeast GPS) (PSI 1-4); higher = more stable; sorted into four equal gates, so the index is relative within each strain
Summary of the method: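 Tiled 17-residue yeast protein peptides were fused downstream of GFP in a plasmid that also expresses Cherry, and the pooled library was carried in yeast. Mid-log cultures in leucine-free medium were sorted into four equal gates by GFP/Cherry fluorescence ratio, and plasmids from each gate were PCR-amplified and Illumina-sequenced, with reads assigned to strains by barcodes. The protein stability index for each peptide was each gate's read frequency times its gate number, summed.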

| Sequence | protein stability index (doa10∆) | protein stability index (pdr5∆) | protein stability index (san1∆) | protein stability index (ubr1∆) |
| --- | --- | --- | --- | --- |
| NVSIVANYIKERTKNAQ [SMC4] | 3.02 ± 0.12 | 3.14 ± 0.065 | 2.91 ± 0.05 | 3.18 ± 0.061 |
| ATDEESVRLQRFYQLGV [CSN12] | 3.13 ± 0.16 | 3.13 ± 0.15 | 2.92 ± 0.11 | 3.13 ± 0.099 |
| KWDNQSASRAKNMPVIY [RGR1] | 2.86 ± 0.13 | 2.41 ± 0.12 |  | 3.39 ± 0.16 |
| AYGVLDSNYKWDLSVED [PRE2] | 3 ± 0.073 | 2.94 ± 0.083 | 3.26 ± 0.086 | 3.42 ± 0.056 |
| WFCPCHGSHYDISGRIR [RIP1] |  | 2.31 ± 0.18 | 2.64 ± 0.25 |  |
| IKFFWNNTHVGRQFCNR [YLR018C/POM34] |  | 1.68 ± 0.14 | 1.74 ± 0.27 | 1.9 ± 0.1 |
| NSISDFLGEQVNEPTKN [RPN1] | 3.32 ± 0.12 | 3.15 ± 0.13 | 3.34 ± 0.1 | 3.18 ± 0.091 |
| RYKPKSHLWEIDIPLDE [RPC37] | 2.81 ± 0.23 |  | 3.03 ± 0.22 |  |
| ISRNGDTSYKIDGKTVS [SMC1] | 2.72 ± 0.14 | 3.01 ± 0.074 | 2.9 ± 0.064 | 3.29 ± 0.081 |
| TTDKNTTDDKSMDTKKK [BRN1] | 3.51 ± 0.1 | 3.51 ± 0.084 | 3.61 ± 0.039 | 3.33 ± 0.053 |
| ESKQDGLSILFLTGQFA [YML103C/NUP188] | 2.79 ± 0.078 | 2.57 ± 0.062 | 2.88 ± 0.059 | 2.72 ± 0.063 |
| LARDTPSANNSSSIKST [RRP4] | 2.86 ± 0.076 | 2.91 ± 0.057 | 2.97 ± 0.047 | 3.14 ± 0.054 |
| GWYHSHPGFGCWLSSVD [RPN11] | 2.72 ± 0.12 | 3.09 ± 0.072 | 2.35 ± 0.087 | 2.64 ± 0.12 |
| AELIPELYSFQQLVDSE [SNF12] | 1.79 ± 0.08 | 2.12 ± 0.067 | 2.67 ± 0.057 | 1.87 ± 0.047 |
| KDQALIGTINSIVHINS [SIR2] | 1.69 ± 0.035 | 1.66 ± 0.032 | 1.75 ± 0.049 | 1.41 ± 0.027 |
| NQIPVTEHSKVTRFDEK [SRB6] | 2.28 ± 0.05 | 3.02 ± 0.049 | 2.86 ± 0.052 | 2.87 ± 0.048 |
| PGFQLPNRITLTDHRKE [SRB8] | 2.79 ± 0.079 | 2.98 ± 0.084 | 3.14 ± 0.069 | 3.22 ± 0.067 |
| NTSFSFTKPPANETDKR [YOR098C/NUP1] | 3.08 ± 0.075 | 3.11 ± 0.049 | 3.07 ± 0.046 | 3.15 ± 0.045 |
| KVLGVKDMSPILGELKR [LRP1] | 2.71 ± 0.089 | 3.14 ± 0.068 | 2.88 ± 0.065 | 3.12 ± 0.045 |
| KQLQLAMHNSKAASSTR [POP1] | 1.96 ± 0.057 | 2.17 ± 0.071 | 1.54 ± 0.11 | 1.74 ± 0.037 |

| Sequence | protein stability index (doa10∆) | protein stability index (pdr5∆) | protein stability index (san1∆) | protein stability index (ubr1∆) |
| --- | --- | --- | --- | --- |
| ADGPTMREITETIAEAK [RPO21] | 3.46 ± 0.074 | 3.45 ± 0.055 | 3.39 ± 0.026 | 3.39 ± 0.041 |
| HLSSKTGLHFGRLSLRS [QCR10] | 3.24 ± 0.2 | 3.06 ± 0.11 | 3.06 ± 0.11 | 3.14 ± 0.12 |
| FYRGNYTDFENTFQKTV [FAS1] | 2.41 ± 0.074 | 2.63 ± 0.062 | 2.34 ± 0.1 | 2.67 ± 0.056 |
| KRVKSYMDKAKQYDNRI [LRP1] | 2.87 ± 0.047 | 2.89 ± 0.042 | 2.92 ± 0.04 | 2.83 ± 0.042 |
| VRTNTLTKAAIVQIDAT [RPS8A] | 2.233 ± 0.022 | 2.54 ± 0.023 | 2.37 ± 0.026 | 2.297 ± 0.019 |
| EWKSEFVVPTFGQDVSP [SNM1] | 2.25 ± 0.052 | 2.29 ± 0.055 | 3.04 ± 0.063 | 2.24 ± 0.05 |
| IKGSKLSLGEAFKKIDA [COR1] | 3.29 ± 0.28 |  | 2.29 ± 0.16 | 2.64 ± 0.093 |
| LVELMFIRSTNSWFDVT [FAS1] | 1.65 ± 0.092 | 1.98 ± 0.072 | 1.72 ± 0.2 | 1.51 ± 0.044 |
| RIATEASKLAAYNKKST [HTB1] | 3.21 ± 0.097 | 2.47 ± 0.24 |  | 2.94 ± 0.098 |
| LKKQLHVSHEAMREVND [YIL149C/MLP2] | 2.77 ± 0.066 | 2.24 ± 0.058 | 2.91 ± 0.07 | 2.85 ± 0.076 |
| GVTSLIKNLGLPSDRCS [RPP1] | 2.29 ± 0.068 | 2.26 ± 0.072 | 1.5 ± 0.12 | 1.69 ± 0.062 |
| EITDASLNLQYVNYEIS [YML103C/NUP188] | 2.62 ± 0.05 | 2.96 ± 0.067 | 2.31 ± 0.072 | 2.79 ± 0.049 |
| LQVLKRERDGIKEDIEK [SMC1] | 3.06 ± 0.23 | 2.85 ± 0.12 | 3.15 ± 0.066 | 2.75 ± 0.23 |
| SAPPPALPHVEINQVSL [RGR1] | 2.46 ± 0.074 | 2.96 ± 0.11 | 2.48 ± 0.09 | 2.33 ± 0.052 |
| YSNEPFNTNFDDEFGDL [SNF6] | 3.02 ± 0.1 | 3 ± 0.093 | 2.99 ± 0.059 | 3.06 ± 0.042 |
| PNFFLTLISENWWHSEF [BRR2] | 2.8 ± 0.22 | 2.27 ± 0.11 | 2.59 ± 0.092 | 2.85 ± 0.25 |
| NKEMHTDLGKDIPFFPS [SSN2] | 2.34 ± 0.062 | 2.01 ± 0.066 | 2.52 ± 0.066 | 2.76 ± 0.055 |
| LSRPSLPKIKTVRKSIA [RPL35A] | 1.54 ± 0.06 | 1.94 ± 0.073 | 2.31 ± 0.059 | 1.85 ± 0.054 |
| NFKGLAKEKERMLEEAI [YIL149C/MLP2] | 3.4 ± 0.095 | 3.56 ± 0.09 | 3.48 ± 0.071 | 3.38 ± 0.083 |

Reference: the supplement of paper PMC9732359
